# From PMC3378326 (Structure(London, England:1993), 2012)
# B1: D1-D2-D3^ΔAB (FGFR1c) (domain or fragment)
# chain: RPSPTLPEQAQPWGAPVEVESFLVHPGDLLQLRCRLRDDVQSINWLRDGVQLAESNRTRITGEEVEVQDSVPADSGLYACVTSSPSGSDTTYFSVNVSDALPSSKETDNTKPNRMPVAPYWTSPEKMEKKLHAVPAAKTVKFKCPSSGTPNPTLRWLKNGKEFKPDHRIGGYKVRYATWSIIMDSVVPSDKGNYTCIVENEYGSINHTYQLDVVERSPHRPILQAGLPANKTVALGSNVEFMCKVYSDPQPHIQWLKHIEVNGSKIGPDNLPYVQILKTAGVNTTDKEMEVLHLRNVSFEDAGEYTCLAGNSIGLSHHSAWLTVLEALEERPAVMTSPLYLE
# B2: D1-AB13ALA-D2-D3 (FGFR1c) (domain or fragment)
# chain: RPSPTLPEQAQPWGAPVEVESFLVHPGDLLQLRCRLRDDVQSINWLRDGVQLAESNRTRITGEEVEVQDSVPADSGLYACVTSSPSGSDTTYFSVNVSDALPSSAAAAAAAAAAAAAKETDNTKPNRMPVAPYWTSPEKMEKKLHAVPAAKTVKFKCPSSGTPNPTLRWLKNGKEFKPDHRIGGYKVRYATWSIIMDSVVPSDKGNYTCIVENEYGSINHTYQLDVVERSPHRPILQAGLPANKTVALGSNVEFMCKVYSDPQPHIQWLKHIEVNGSKIGPDNLPYVQILKTAGVNTTDKEMEVLHLRNVSFEDAGEYTCLAGNSIGLSHHSAWLTVLEALEERPAVMTSPLYLE
# Key:
# FGF1 = FGF1 (UniProt P05230 1-155); experiment: SPR
# Sequence of FGF1 (P05230 whole entry): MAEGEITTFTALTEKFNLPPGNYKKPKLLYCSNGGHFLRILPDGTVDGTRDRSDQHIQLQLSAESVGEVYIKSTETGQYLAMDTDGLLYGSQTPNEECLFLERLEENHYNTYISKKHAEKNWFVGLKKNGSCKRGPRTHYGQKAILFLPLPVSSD
# FGF8b = experiment: SPR
binder,measurement,setting,value
B1,Kd,FGF1,265 nM
same,Kd,FGF8b,390 nM
B2,Kd,FGF1,268 nM
same,Kd,FGF8b,329 nM
